Residue numbers refer to the chain shown, from its start. One block for each binder: values may come before it.
How the values were obtained:
human CD3 (Jurkat cells) = molecular target: T1, human CD3 (Jurkat cells) (human, UniProt P07766); assay: FACS, Jurkat cells
T1 chain: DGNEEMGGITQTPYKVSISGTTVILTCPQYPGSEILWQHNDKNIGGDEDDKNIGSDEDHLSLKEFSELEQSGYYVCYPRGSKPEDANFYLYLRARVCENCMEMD

human GPC3 (HepG2 cells) = human GPC3 (HepG2 cells) (human, UniProt P51654); assay: FACS, HepG2 cells
human GPC3 protein = human GPC3 protein (human, UniProt P51654); assay: SPR
Sequence of human GPC3 protein (P51654 25-554): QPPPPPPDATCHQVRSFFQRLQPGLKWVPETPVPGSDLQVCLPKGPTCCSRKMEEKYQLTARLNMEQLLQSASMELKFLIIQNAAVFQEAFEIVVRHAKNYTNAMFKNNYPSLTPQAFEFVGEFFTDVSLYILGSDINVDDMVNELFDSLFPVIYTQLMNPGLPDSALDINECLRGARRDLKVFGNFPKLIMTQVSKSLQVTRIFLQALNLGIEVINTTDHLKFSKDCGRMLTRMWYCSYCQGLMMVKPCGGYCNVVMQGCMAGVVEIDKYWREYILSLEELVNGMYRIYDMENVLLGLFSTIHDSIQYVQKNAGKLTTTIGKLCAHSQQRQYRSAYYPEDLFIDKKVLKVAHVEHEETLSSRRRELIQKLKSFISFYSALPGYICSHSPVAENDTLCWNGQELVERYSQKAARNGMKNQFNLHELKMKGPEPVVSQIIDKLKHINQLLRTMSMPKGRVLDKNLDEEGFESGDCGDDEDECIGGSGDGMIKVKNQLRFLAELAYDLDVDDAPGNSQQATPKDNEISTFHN

human CD3 E&D protein = molecular target: T2, human CD3 E&D protein (human, UniProt P07766); assay: SPR
T2 chain 1: T1 chain
T2 chain 2: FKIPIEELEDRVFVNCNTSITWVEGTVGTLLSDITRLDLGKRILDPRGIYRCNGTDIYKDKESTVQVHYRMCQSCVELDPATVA

monkey CD3 E&D protein = molecular target: T3, monkey CD3 E&D protein (cynomolgus monkey, UniProt Q95LI5); assay: SPR
T3 chain 1: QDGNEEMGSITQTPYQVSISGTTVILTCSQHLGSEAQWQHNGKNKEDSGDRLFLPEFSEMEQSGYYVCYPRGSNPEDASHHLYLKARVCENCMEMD
T3 chain 2: T2 chain 2 with I5V, N15K, I20V, S32T, D33N, I34N, T64A, S74N, V83L

Sequence of human GPC3 (HepG2 cells) (P51654 25-554): as the sequence (P51654 25-554) above

- EC50 (human CD3 (Jurkat cells)): 23.9 nM
B1: G100 (anti-CD3 scFv arm) (antibody, V domains shown)
VH: EVKLVESGGGLVQPGGSLKLSCAASGFTFNTYAMNWVRQAPGKGLEWVARIRSKYNNYATYYADSVKDRFTISRDDAKNTLYLQMNNLRTEDTAVYYCVRHGNFGNSYVSWFAYWGQGTLVTVSS
VL: QAVVTQEPSLTVSPGGTVTLTCRSSTGAVTTSNYANWVQQKPGQAPRGLIGGTNKRAPGTPARFSGSLLGGKAALTLSGAQPEDEAEYYCALWYSNLWVFGGGTKLTVL

- EC50 (human GPC3 (HepG2 cells)): 0.16 nM
- Kd (human GPC3 protein): 5.42 nM
B2: G156 (anti-GPC3 VHH arm, two VHH copies, Format 2) (antibody, V domains shown)
VH: QVQLVESGGGVVQPGGSLRLSCAASGRTLTNYVMGWFRQAPGKEREIVAGINWAGSRIGYGDFVKGRFTISRDNSKNTVYLQMNSLRPEDTAVYYCAAKLGKYNYPEYDYRGQGTLVTVSS
VL: B1 VL

- EC50 (human GPC3 (HepG2 cells)): 0.42 nM
- Kd (human GPC3 protein): 8.36 nM
B3: G100 (anti-GPC3 VHH arm, monovalent, Format 1) (antibody, V domains shown)
VH: B2 VH
VL: B1 VL

- EC50 (human CD3 (Jurkat cells)): 27.4 nM
B4: G156 (anti-CD3 scFv arm) (antibody, V domains shown)
VH: B1 VH
VL: B1 VL

- Kd (human CD3 E&D protein): 3.49 nM
B5: G100 (anti-CD3 scFv arm) (antibody, V domains shown)
VH: B1 VH
VL: B1 VL
modifications: Acro CDD-H52W1

- Kd (monkey CD3 E&D protein): 5.66 nM
B6: G100 (anti-CD3 scFv arm) (antibody, V domains shown)
VH: B1 VH
VL: B1 VL
modifications: Acro CDD-C52W4

- Kd (human CD3 E&D protein): 1.3 nM
B7: G156 (anti-CD3 scFv arm) (antibody, V domains shown)
VH: B1 VH
VL: B1 VL
modifications: Acro CDD-H52W1

- Kd (monkey CD3 E&D protein): 2.79 nM
B8: G156 (anti-CD3 scFv arm) (antibody, V domains shown)
VH: B1 VH
VL: B1 VL
modifications: Acro CDD-C52W4

Source: EP4613767 (dated 2025)
